In patent US10772928B2, “Modulation and detection of a neuronal alternative splicing regulatory network for treatment and diagnosis of neurological disorders” (The Governing Council of the University of Toronto, priority 2014, dated 2020):

T1: nSR100 (Mus musculus, UniProt Q8BKA3)
T1 construct: host or cells: mouse N2A cells
T1 sequence (Q8BKA3 1-608): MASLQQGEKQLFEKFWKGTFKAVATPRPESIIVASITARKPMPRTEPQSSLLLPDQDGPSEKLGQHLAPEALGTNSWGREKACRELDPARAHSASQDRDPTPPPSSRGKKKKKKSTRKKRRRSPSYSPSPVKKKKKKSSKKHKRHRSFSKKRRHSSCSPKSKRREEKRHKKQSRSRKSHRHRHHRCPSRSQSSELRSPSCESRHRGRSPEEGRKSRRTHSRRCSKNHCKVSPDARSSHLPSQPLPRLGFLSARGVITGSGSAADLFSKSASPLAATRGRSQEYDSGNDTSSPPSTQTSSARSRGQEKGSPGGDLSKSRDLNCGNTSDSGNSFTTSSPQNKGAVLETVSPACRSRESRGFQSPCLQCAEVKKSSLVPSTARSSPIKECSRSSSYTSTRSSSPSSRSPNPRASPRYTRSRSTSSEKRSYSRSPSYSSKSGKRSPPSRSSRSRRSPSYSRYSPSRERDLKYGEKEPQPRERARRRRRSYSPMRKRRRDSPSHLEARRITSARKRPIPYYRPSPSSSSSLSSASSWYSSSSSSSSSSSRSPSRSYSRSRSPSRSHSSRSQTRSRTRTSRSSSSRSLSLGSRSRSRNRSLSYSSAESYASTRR


Molecular target: T1, nSR100
Experiment: AP-MS nSR100 interaction partners from mouse N2A cells (Table 5)
Assay type: binding
Details: for AvgP (average of the SAINT scores) / MaxP (maximal SAINT score): bait Srrm4; for FoldChange between the prey Avg spectra of the bait and control purifications: bait Srrm4, 0.1 added to prevent division by 0; for AvgSpec (average number of spectra per replicate): bait Srrm4, 2 replicates; for Spectra (number of spectra for the prey in the purification of the bait): AP-MS; for SpecSum: bait Srrm4, sum of spectra over 2 replicates
[1] = bait Srrm4, biological replicate 1 (first number of the cell)
[2] = bait Srrm4, biological replicate 2 (second number of the cell)

Source text: By applying affinity purification coupled to mass-spectrometry (AP-MS), several interaction nSR100 partner proteins were detected that provide insight into mechanisms of post-translational regulation of nSR100 levels.

Molecule | AvgP (average of the SAINT scores) | MaxP (maximal SAINT score) | FoldChange between the prey Avg spectra of the bait and control purifications | AvgSpec (average number of spectra per replicate) | Spectra (number of spectra for the prey in the purification of the bait) [1] | Spectra (number of spectra for the prey in the purification of the bait) [2] | SpecSum
Ddx47 (protein, UniProt Q9CWX9 2-455, looked up) Probable ATP-dependent RNA …: AADEEPDSPSGALQTAAEEEETKTFKDLGVTDVLCEACDQLGWAKPTKIQIEAIPLALQGRDIIGLAETGSGKTGAFALPILNALLETPQRLFALVLTPTRELAFQISEQFEALGSSIGVQCAVIVGGIDSMSQSLALAKKPHIVIATPGRLIDHLENTKGFNLRALKYLVMDEADRILNMDFETEVDKILKVIPRDRKTFLFSATMTKKVQKLQRAALKNPVKCAVSSKYQTVEKLQQYYLFIPSKFKDTYLVYILNELAGNSFMIFCSTCNNTQRTALLLRNLGFTAIPLHGQMSQSKRLGSLNKFKAKARSILLATDVASRGLDIPHVDVVVNFDIPTHSKDYIHRVGRTARAGRSGKAITFVTQYDVELFQRIEHLIGKKLPVFPTQDEEVMMLTERVNEAQRFARMELREHGEKKKRKREDAGDDDDKEGAIGVRNKVAGGKMKKRKGR | 1 | 1 | 35 | 3.5 | 3 | 4 | 7
Csnk2a2 (protein, UniProt O54833 1-350, looked up) Casein kinase II subunit …: MPGPAAGSRARVYAEVNSLRSREYWDYEAHVPSWGNQDDYQLVRKLGRGKYSEVFEAINITNNERVVVKILKPVKKKKIKREVKILENLRGGTNIIKLIDTVKDPVSKTPALVFEYINNTDFKQLYQILTDFDIRFYMYELLKALDYCHSKGIMHRDVKPHNVMIDHQQKKLRLIDWGLAEFYHPAQEYNVRVASRYFKGPELLVDYQMYDYSLDMWSLGCMLASMIFRKEPFFHGQDNYDQLVRIAKVLGTDELYGYLKKYHIDLDPHFNDILGQHSRKRWENFIHSENRHLVSPEALDLLDKLLRYDHQQRLTAKEAMEHPYFYPVVKEQSQPCAENTVLSSGLTAAR | 1 | 1 | 10 | 20 | 16 | 24 | 40
Ddx41 (protein, UniProt Q91VN6 1-622, looked up) Probable ATP-dependent RNA …: MEDSEPERKRARADEATAGGSRSEDEDEDDEDYVPYVPLRQRRQLLLQKLLQRRRKGATEEEQQDSGSEPRGDEDDIPLGPQSNVSLLDQHQHLKEKAEARKESAKEKQLKEEEKILESVAEGRALMSVKEMAKGITYDDPIKTSWTPPRYVLSMSEERHERVRKKYHILVEGDGIPPPIKSFKEMKFPAAILRGLKKKGILHPTPIQIQGIPTILSGRDMIGIAFTGSGKTLVFTLPVIMFCLEQEKRLPFSKREGPYGLIICPSRELARQTHGILEYYCRLLQEDSSPLLRCALCIGGMSVKEQMETIRHGVHMMVATPGRLMDLLQKKMVSLDICRYLALDEADRMIDMGFEGDIRTIFSYFKGQRQTLLFSATMPKKIQNFAKSALVKPVTINVGRAGAASLDVIQEVEYVKEEAKMVYLLECLQKTPPPVLIFAEKKADVDAIHEYLLLKGVEAVAIHGGKDQEERTKAIEAFREGKKDVLVATDVASKGLDFPAIQHVINYDMPEEIENYVHRIGRTGRSGNTGIATTFINKACDESVLMDLKALLLEAKQKVPPVLQVLHCGDESMLDIGGERGCAFCGGLGHRITDCPKLEAMQTKQVSNIGRKDYLAHSSMDF | 1 | 1 | 65 | 6.5 | 6 | 7 | 13
Necap1 (protein, UniProt Q9CR95 1-275, looked up) Adaptin ear-binding …: MAAELEYESVLCVKPDVSVYRIPPRASNRGYRASDWKLDQPDWTGRLRITSKGKIAYIKLEDKVSGELFAQAPVEQYPGIAVETVTDSSRYFVIRIQDGTGRSAFIGIGFTDRGDAFDFNVSLQDHFKWVKQETEISKESQEMDNRPKLDLGFKEGQTIKLSIGNITAKKGGASKPRASGTGGLSLLPPPPGGKVTIPPPSSSVAISNHVTPPPIPKSNHGGNDSDILLDLDSPAPVSTSAPAPVSTSNDLWGDFSTASSSVPNQAPQPSNWVQF | 1 | 1 | 125 | 12.5 | 12 | 13 | 25
Poldip3 (protein, UniProt Q8BG81 2-420, looked up) Polymerase delta-interacting …: ADLSLDELIRKRGTAAKGRLSVRPGIGGVRSRVGIQHSLVNQPARTATFQQRFDARQKIGLSDARLKLGVKDAREKLLQKDARFRIKGKVQDAREMLNSRKQQGTVPQKPRQVADAREKISLKRRSPAAFTSPPIGTVTPALKLTKTIQVPQQKAMVPLHAHPAGMRINVVNNHQAKQNLYDLDEDDDIVVPVPPKQMKFAATGSLVHHMTGLSSSKLSMSKALPLTKVVQNDAYTAPVLPSSVRTKALTSMSRTLVNKEEPPKELPPAEPVLSPLEGTKMTVNNLHPRVTEEDIVELFCVCGALKRARLVHPGVAEVVFVKKDDAITAYKKYNNRCLDGQPMKCNLHMNGNVITSDQPILLRLSDSPSVKKESELPRRGNPASSNPPAEVDPDTVLRALFKSSGASVTTQPTEFKIKL | 1 | 1 | 65 | 6.5 | 7 | 6 | 13
Ccdc55 (protein, UniProt Q5NCR9 1-542, looked up) Nuclear speckle splicing …: MAIPGRQYGLILPKKTQPLHRVLQKPSVFGSDSDDDETSVSESLQREAAKKQAMKQTKLEIQKALAEDSTVYEYDSVYDEMQKKKEENNPKLLPGKDRKPKYIHNLLKAVEIRKKEQEKRMEKKIQREREMENGEFDDKEAFVTSAYKKKLEERAEEEEREKRAAALEAHLDVTKQKDLSGFYRHLLNQAVGEEAAPKSSFREARTVIKEEKLRGYPDETNSESRPPQQSCVLQRGAQEAEENPDADREFDDESSEDGEKRDHKVKSRGEDTGASMKHPKHHKNRAHSRSSSEERGLGTKHHSRGSQSRGHEHQDRQSRDQESCHKDRSHREEKSSHRHREASHKDHYWKKHEQEDKLKGREQEERQDREGKREKYSSREQERDRQRNDHDRYSEKEKKRKEKEEHTKARRERCEDSGKHREREKPEGHGQSSERHRDRRESSPRSRPKDDLDQERSSKARNTEKDKGEQGKPSHSETSLATKHRLAEERPEKGSEQERPPEAVSKFAKRSNEETVMSARDRYLARQMARINAKTYIEKEDD | 1 | 1 | 75 | 7.5 | 5 | 10 | 15
Cwc22 (protein, UniProt Q8C5N3 1-908, looked up) Pre-mRNA-splicing factor …: MKSSVAHMKSSGHNRRETHSSYRRSSSPEDRYTEQERSPRDRGYSDYSRSDYERSRRGYSYDDSMESRSRDREKRRERERDADHRKRSRKSPSPDRSPARGGGQSSPQEEPTWKKKKDELDPLLTRTGGAYIPPAKLRMMQEQITDKSSLAYQRMSWEALKKSINGLINKVNISNISIIIQELLQENIVRGRGLLSRSVLQAQSASPIFTHVYAALVAIINSKFPQIGELILKRLILNFRKGYRRNDKQLCLTASKFVAHLINQNVAHEVLCLEMLTLLLERPTDDSVEVAIGFLKECGLKLTQVSPRGINAIFERLRNILHESEIDKRVQYMIEVMFAVRKDGFKDHPVILEGLDLVEEDDQFTHMLPLEDDYNPEDVLNVFKMDPNFMENEEKYKAIKKEILDEGDSDSNTDQGAGSSEDEEEEDEEEEGEDEEGGQKVTIHDKTEINLVSFRRTIYLAIQSSLDFEECAHKLLKMEFAESQTKELCNMILDCCAQQRTYEKFFGLLAGRFCMLKKEYMESFESIFKEQYDTIHRLETNKLRNVAKMFAHLLYTDSLPWSVLECIKLSEETTTSSSRIFVKIFFQELCEYMGLPKLNARLKDETLQPFFEGLLPRDNPRNTRFAINFFTSIGLGGLTDELREHLKNTPKVIVAQKPEAEQKKPALTSSSSESSSASDSSDSESDSSESSSESSSDASDSSSSSSTQSSTSGITAHSAKGTRKKRQGKARGEEVDKLARGHQALERRREGGREDQRHQEGRTERARSERRRAQNSRDADWRDPLAKHIDDRSHENSHSRVGNGREQGSHREPEDRHGEPKKRRERRDSFSENEKQRSRNQDSDNVRRKDRSKSRERSRRHSGHKGDDARCQNSAERRWEKPGRRPEQSRESKRSQDRRREKSPTTQK | 1 | 1 | 385 | 38.5 | 37 | 40 | 77
